Data taken from patent US20230137562A1, “TAU AGGREGATION INHIBITORS” (priority 2017, published 2023).
Several values for one entry are separate records, joined by “and”; a condition that tells them apart may be missing. Identical values can stand only once. Square brackets hold non-standard residues; d marks the D form. Ends that are not written are not given here. hArg = N=C(N)NCCCC[C@H](N)C(=O)O

T1: Ac-VQIINK-NH2
T1 peptide: Ac-VQIINK-NH2


Columns and labels:
Ac-VQIINK-NH2 = target: T1, Ac-VQIINK-NH2; assay: cell-based or functional assay
His-Tau40P301L Tau = His-Tau40P301L Tau (UniProt P10636-8 1-441); assay: cell-based or functional assay
Sequence of His-Tau40P301L Tau (P10636 other isoform, or with tags, fused parts or gaps limits assumed): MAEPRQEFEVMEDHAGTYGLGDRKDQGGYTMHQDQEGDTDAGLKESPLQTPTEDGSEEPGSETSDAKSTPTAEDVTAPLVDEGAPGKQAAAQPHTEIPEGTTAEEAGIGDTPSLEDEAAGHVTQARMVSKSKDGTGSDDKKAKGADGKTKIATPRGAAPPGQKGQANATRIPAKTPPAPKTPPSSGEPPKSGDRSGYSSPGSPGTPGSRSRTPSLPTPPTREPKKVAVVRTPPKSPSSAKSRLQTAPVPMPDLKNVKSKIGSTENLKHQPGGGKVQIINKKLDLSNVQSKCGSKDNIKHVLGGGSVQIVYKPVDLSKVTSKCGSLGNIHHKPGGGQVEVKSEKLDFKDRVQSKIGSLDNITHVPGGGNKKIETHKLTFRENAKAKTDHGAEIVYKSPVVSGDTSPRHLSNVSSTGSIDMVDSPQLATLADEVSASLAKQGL

Binder | IC50 (µM), VQIINK Inhibition (ThT) (Ac-VQIINK-NH2) | IC50 (µM), Tau40 assay (ThT) (His-Tau40P301L Tau)
RRIRIRW | 4.29 µM | 2.88 µM
WYRLRIRW | 2.36 µM | 0.86 µM and 0.97 µM
WRIWIRW | 2.73 µM | 2.98 µM and 2.1 µM and 2.11 µM
WRIHIRW | 1.47 µM | 3.09 µM
WRIRLYWR | 2.12 µM | 3.1 µM
WRIRIRR | 34.1 µM | 3.15 µM
FRIRIHHW | 1.08 µM | 3.2 µM
HRIRIRW | 9.07 µM | 3.28 µM
WRIRIRW | 2.96 µM | 0.9 µM and 0.84 µM
W[hArg]I[hArg]L[hArg]W [W(hR)I(hR)L(hR)W] | 2.52 µM | 3.39 µM
RIALYWW | 2.39 µM | 3.54 µM
WIRYWWRI | 2.8 µM | 3.69 µM
WRARIRW | 5.77 µM | 3.7 µM
WRIHIRYW | 3.17 µM | 3.76 µM
LKIHIRHW | 3.05 µM | 3.79 µM
RIRIFIW | 1.57 µM | 3.94 µM
FRIWIRYF | 4.64 µM | 4 µM
WRIRLRW | 4.04 µM | 0.9 µM and 0.97 µM
IWIRYW | 5.43 µM | 4.05 µM
ARIWIRYW | 3.14 µM | 4.08 µM
RIRIAIW | 1.8 µM | 4.14 µM
ARIRIRW | 2.72 µM | 4.19 µM
RIHIFFW | 1.95 µM | 4.4 µM
WRIRIRH | 11.6 µM | 4.44 µM
RIRIRWW | 10.2 µM | 4.57 µM
WYRIWIRW | 2.02 µM and 3.69 µM | 0.96 µM and 1 µM and 1.73 µM
KWWIRIRYW | 1.8 µM | 4.62 µM and 7.02 µM
WRIRIAW | 6 µM | 4.72 µM
ERIWIRYW | 6.19 µM | 5.33 µM
